Assay results published in US20240287172A1 (SCIRHOM, published 2024).
Substitutions are numbered along the chain they refer to.

How the values were obtained:
[1] = molecular target: T1, hiR2-FL-G546A-T7 (human, UniProt Q6PJF5 1-856); test: FACS, MEF-DKO cells, 3 µg/ml
T1 sequence: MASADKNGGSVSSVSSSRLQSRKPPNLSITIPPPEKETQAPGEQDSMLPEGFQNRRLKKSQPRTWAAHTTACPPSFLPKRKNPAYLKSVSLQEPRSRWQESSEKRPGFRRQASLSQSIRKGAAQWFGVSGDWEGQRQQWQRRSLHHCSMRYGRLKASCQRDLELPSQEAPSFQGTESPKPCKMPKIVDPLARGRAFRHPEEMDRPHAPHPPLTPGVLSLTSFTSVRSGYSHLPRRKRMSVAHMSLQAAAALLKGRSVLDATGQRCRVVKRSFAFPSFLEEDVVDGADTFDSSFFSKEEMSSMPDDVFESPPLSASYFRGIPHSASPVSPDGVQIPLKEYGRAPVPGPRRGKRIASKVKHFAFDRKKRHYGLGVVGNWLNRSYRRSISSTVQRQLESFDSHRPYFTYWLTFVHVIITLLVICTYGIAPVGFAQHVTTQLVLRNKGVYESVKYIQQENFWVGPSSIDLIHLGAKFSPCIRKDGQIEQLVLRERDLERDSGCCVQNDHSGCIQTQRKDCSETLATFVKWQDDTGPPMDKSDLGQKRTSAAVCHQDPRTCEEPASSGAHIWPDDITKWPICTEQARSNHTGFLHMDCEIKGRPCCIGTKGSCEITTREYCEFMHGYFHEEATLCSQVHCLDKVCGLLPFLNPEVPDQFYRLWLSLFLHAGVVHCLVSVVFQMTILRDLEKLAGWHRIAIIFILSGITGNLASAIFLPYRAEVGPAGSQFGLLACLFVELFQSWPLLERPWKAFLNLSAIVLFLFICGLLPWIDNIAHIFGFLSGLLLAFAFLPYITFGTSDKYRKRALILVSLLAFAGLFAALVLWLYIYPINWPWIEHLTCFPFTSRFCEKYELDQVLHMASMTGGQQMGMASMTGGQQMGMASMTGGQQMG
Source text: (§1) In brief, immortalized MEF-DKO-hiR2-FL-WT-T7 cells, MEF-DKO-miR2-FL-WT-T7 cells and MEF-DKO-hiR2-FL-R441K-T7, MEF-DKO-hiR2-FL-K443R-T7, MEF-DKO-hiR2-FL-V459I-T7, MEF-DKO-hiR2-FL-G481Q-T7, MEF-DKO-hiR2-FL-L488R-T7, MEF-DKO-hiR2-FL-L493I-T7, MEF-DKO-hiR2-FL-D496T-T7, MEF-DKO-hiR2-FL-H505R-T7, MEF-DKO-hiR2-FL-Q512L-T7, MEF-DKO-hiR2-FL- R513K-T7, MEF-DKO-hiR2-FL-D528N-T7, MEF-DKO-hiR2-FL-P533-T7, MEF-DKO-hiR2-FL-M534S-T7, MEF-DKO-hiR2-FL-G540S-T7, MEF-DKO-hiR2-FL-R543Q-T7, MEF-DKO-hiR2-FL-T544P-T7, MEF-DKO-hiR2-FL-G546A-T7, MEF-DKO-hiR2-FL-A547V-T7, MEF-DKO-hiR2-FL-R582Q-T7, MEF-DKO-hiR2-FL-F588L-T7, MEF-DKO-hiR2-FL-M591I-T7, MEF-DKO-hiR2-FL-E594K-T7, MEF-DKO-hiR2-FL-E626D-T7, MEF-DKO-hiR2-FL-L657I-T7, and MEF-DKO-hiR2-FL-H835Y-T7 cells were harvested with 10 mM EDTA in PBS, washed and resuspended in FACS buffer (PBS, 3% FBS, 0.05% sodium azide), and seeded in Nunc U-bottom 96-well plates (Thermo Fisher Scientific, USA) at approximately 3×10⁵ cells per well.
(§2) To pellet cells and remove supernatants, the plates were centrifuged at 1,500 rpm and 4° C. for 3 minutes. For primary staining, cells were resuspended in 100 μl per well of either FACS buffer alone (controls) or the purified antibodies 3, 5, 16, 22, 34, 42, 43, 44, 48, and 50 of the invention at 3 μg/ml FACS buffer and incubated on ice for 1 hour. Afterwards, plates were centrifuged at 1,500 rpm and 4° C. for 3 minutes and washed twice with 200 μl per well of FACS buffer. For secondary staining, cells were spun down and resuspended in 100 μl per well of PE-conjugated goat anti-mouse IgG F(ab′)2 detection fragment (Dianova, Germany) diluted 1:100 in FACS buffer. Protected from light, the cell suspensions were incubated on ice for 1 hour. Plates were then centrifuged at 1,500 rpm and 4° C. for 3 minutes and washed three times with 200 μl per well of FACS buffer. Finally, cells were resuspended in 150 μl per well of FACS buffer and analyzed using a BD Accuri™ C6 Plus flow cytometer (Becton Dickinson, Germany).

[2] = molecular target: T2, hiR2-FL-P533-T7 (deletion of P533) (human, UniProt Q6PJF5 1-856); test: FACS, MEF-DKO cells, 3 µg/ml
T2 construct: single residue deletion, not a substitution; on MEF-DKO cells
T2 sequence: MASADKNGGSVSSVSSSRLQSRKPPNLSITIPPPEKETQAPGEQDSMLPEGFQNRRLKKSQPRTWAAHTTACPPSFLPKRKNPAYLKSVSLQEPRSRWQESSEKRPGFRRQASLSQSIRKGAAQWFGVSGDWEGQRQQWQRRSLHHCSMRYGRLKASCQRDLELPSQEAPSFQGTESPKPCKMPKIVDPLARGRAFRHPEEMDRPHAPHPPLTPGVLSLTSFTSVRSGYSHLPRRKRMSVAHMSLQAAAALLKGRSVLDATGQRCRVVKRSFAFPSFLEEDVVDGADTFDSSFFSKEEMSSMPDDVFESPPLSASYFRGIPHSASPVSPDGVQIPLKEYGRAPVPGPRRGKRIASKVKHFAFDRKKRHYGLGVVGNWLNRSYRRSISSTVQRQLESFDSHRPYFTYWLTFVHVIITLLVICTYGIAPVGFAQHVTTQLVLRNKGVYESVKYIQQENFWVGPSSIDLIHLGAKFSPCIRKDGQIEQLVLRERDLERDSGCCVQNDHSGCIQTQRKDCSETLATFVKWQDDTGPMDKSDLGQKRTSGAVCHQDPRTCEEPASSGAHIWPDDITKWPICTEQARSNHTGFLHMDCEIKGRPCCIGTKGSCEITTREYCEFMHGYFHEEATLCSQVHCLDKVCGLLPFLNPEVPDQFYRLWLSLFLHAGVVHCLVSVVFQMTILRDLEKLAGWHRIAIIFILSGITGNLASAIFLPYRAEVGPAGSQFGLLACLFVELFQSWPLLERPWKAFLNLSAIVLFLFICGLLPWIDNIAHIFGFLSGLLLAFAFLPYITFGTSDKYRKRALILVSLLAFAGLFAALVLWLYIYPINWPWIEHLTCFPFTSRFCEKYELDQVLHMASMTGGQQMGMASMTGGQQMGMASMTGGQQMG
Source text: as §1, §2

B1: antibody 5 (antibody, V domains shown)
VH: QVTLKESGPGILQPSQTLSLTCSFSGFSLSTFGMGVGWIRQPSGKGLEWLAHIWWDDEKYYNSALKSRLTISKATSKNQAFLKIANVDTADTATYYCARISNYGSNYWYFNVWGTGTTVTVSS
VL: QVVLTQSPALMSASPGEKVTMTCSAGSSVSCMYWYQQKPGSSPRVLIYDTSNLASGVPARFTGSGSGTSYSLTISRMEAEDAASYYCQQWNSYPLTFGAGTKLELK
notes: mouse IgG, kappa light chain; also called clone #5; purified antibody 5
loss of binding vs wild type [1]: ≥ 95%
loss of binding vs wild type [2]: ≥ 95%

B2: antibody 44 (antibody, V domains shown)
VH: B1 VH with G44E, E58D, S63P, A74D, A80I, A85T, D91E, A98S, S101G, N111D
VL: QIVLTQSPAVMSASPGEKVTMTCTASSSVYYMYWYQQTPGSSPRLLIYDTSNLASGVPVRFSGSGSGTSYSLTISRMEAEDAATYYCQQWNTYPLTFGAGTKLELK
notes: mouse IgG, kappa light chain; also called clone #44; purified antibody 44
loss of binding vs wild type [1]: ≥ 60%
loss of binding vs wild type [2]: ≥ 95%

B3: antibody 43 (antibody, V domains shown)
VH: B1 VH with T3A, P42S, H52N, E58D, S63P, A74D, T75A, S101G, N111D
VL: QIVLTQSPAIMSASPGERVTMTCSANSRISYMYWYQQKPGSSPRLLIYDTSNLASGVPVRFSGSGSGTSYSLTISRMEAEDAATYNCQQWSSYPLTFGAGTKLELK
notes: mouse IgG, kappa light chain; also called clone #43; purified antibody 43
loss of binding vs wild type [1]: ≥ 60%
loss of binding vs wild type [2]: ≥ 95%

B4: antibody 42 (antibody, V domains shown)
VH: B1 VH with F24L, M34R, S63P, A74D, A80V, K83R, S101Q, N111D
VL: B3 VL with Q1L, R18K, S24G, N26T, Y33F, L45V, M77V, A82V, N86Y, S91N
notes: mouse IgG, kappa light chain; also called clone #42; purified antibody 42
loss of binding vs wild type [1]: ≥ 60%
loss of binding vs wild type [2]: ≥ 95%

B5: antibody 22 (antibody, V domains shown)
VH: B1 VH with A80V
VL: B1 VL with C31Y, S84T
notes: mouse IgG, kappa light chain; also called clone #22; purified antibody 22
loss of binding vs wild type [1]: ≥ 30%
loss of binding vs wild type [2]: ≥ 95%

B6: antibody 50 (antibody, V domains shown)
VH: QVQLQQSGAELVRPGASVKVSCKASGYAFSNYLIEWVKQRPGQGLEWIGVINPGSGFTKYNEKFKGKATLTADKSSSTAYMQLSSLTSEDSAVYFCARGLYRAMDYWGQGTSVTVSS
VL: DIQMTQSPASQSASLGESVTITCLASQTIGTWLAWYQQKPGKSPQLLIYAAASLADGVPSRFSGGGSGTKFSFKISSLQAEDFVNYYCQQIYSTPYTFGGGTKLEIK
notes: mouse IgG, kappa light chain; also called clone #50; purified antibody 50
loss of binding vs wild type [1]: ≥ 30%

B7: antibody 34 (antibody, V domains shown)
VH: QVTLKESGPGILQPSQTLSLTCSFSGFSLSTFSLGVGWIRQSSGKGLEWLAHIWWDDEKYYNPALKSRLTISKDTSKNQVFLKIANVDAADTATYYCARAYYSKSYYALDYWGQGTSVTVSS
VL: DIQMTQSPSSLSASLGERVSLTCRASQEISGYLSWLQQKPDGTIKRLIYAASTLDSGVPKRFSGSRSGSDYSLAISSLESEDFADYYCLQYANFPFTFGSGTKLEIK
notes: mouse IgG, kappa light chain; also called clone #34; purified antibody 34
loss of binding vs wild type [1]: ≥ 60%
loss of binding vs wild type [2]: ≥ 95%

B8: antibody 16 (antibody, V domains shown)
VH: QVTLKESGPGILQPSQTLSLTCSFSGFSLSTFALGVGWIRQPSGRGLEWLAHIWWDDDKYYNPALKSRLTISKDTSKNHVFLKIANVDTADTATYYCARITTYYYGMDYWGQGTSVTVSS
VL: DIVLSQSPATLSVTPGDSVSLFCRASQSIGNHLHWYQQESHASPRLLIKYASQSISGIPSRFSGSGSGTDFTLSINSVETEDFGMYFCQQSYNWPLTFGAGTKLELK
notes: mouse IgG, kappa light chain; also called clone #16; purified antibody 16
loss of binding vs wild type [2]: ≥ 95%

B9: antibody 3 (antibody, V domains shown)
VH: QVTLKESGPGILQPSQTLSLTCSFSGFSLTTFAMGIGWVRQPSGKGLEWLAHIWWDGEKYNNPVLKSRLTISKDTSKNQVFLRIANVDTPDTATYYCARISSIYYIIDNWGQGTSVTVSS
VL: B8 VL with S5T, D17H, F22S, G30S, H32N, Q38K, E39K, A42E, A51V
notes: mouse IgG, kappa light chain; also called clone #3; purified antibody 3
loss of binding vs wild type [1]: ≥ 30%
loss of binding vs wild type [2]: ≥ 95%
